Assay [1] addresses T1, human FcγRIIC expressed on CHO cells (human, UniProt P31995 43-323).
T1 construct: whole, on cells
T1 sequence (looked up): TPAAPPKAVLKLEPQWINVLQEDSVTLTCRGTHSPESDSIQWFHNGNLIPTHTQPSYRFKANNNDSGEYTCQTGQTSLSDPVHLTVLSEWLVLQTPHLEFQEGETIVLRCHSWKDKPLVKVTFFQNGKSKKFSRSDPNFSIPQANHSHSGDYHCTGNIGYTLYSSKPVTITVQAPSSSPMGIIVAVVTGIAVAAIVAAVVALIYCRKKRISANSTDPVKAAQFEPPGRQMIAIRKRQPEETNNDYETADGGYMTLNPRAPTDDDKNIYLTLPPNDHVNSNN
In words: FACS, CHO cells expressing FcγRIIC. How it is done:
(§1) For FACS analysis of the IgG mutants' binding to different FcγRs, FcγR overexpressing CHO cells were harvested using trypsin-EDTA and were suspended in cold staining buffer (3% BSA in PBS). Test IgG mutants, which were diluted in staining buffer, were added into the cells. The mixture was incubated 4° C. for 2 hours, and then washed twice with cold staining buffer and re-suspended in PE-labeled anti-human IgG followed by incubation at 4° C. for 2 hours. The mixture was washed twice with staining buffer and re-suspended in 2% PFA in PBS for FACS.
For orientation: In flow cytometry, cells or beads pass a laser one at a time.

In assay [2] the target is T2, human FcRIIIA-V158 protein (MednaBio, E1035) (human, UniProt P08637 17-208).
T2 construct: Bought; also called FcγRIIIA(V); FcgRIIIA(V)
T2 sequence (P08637 17-208 F176V): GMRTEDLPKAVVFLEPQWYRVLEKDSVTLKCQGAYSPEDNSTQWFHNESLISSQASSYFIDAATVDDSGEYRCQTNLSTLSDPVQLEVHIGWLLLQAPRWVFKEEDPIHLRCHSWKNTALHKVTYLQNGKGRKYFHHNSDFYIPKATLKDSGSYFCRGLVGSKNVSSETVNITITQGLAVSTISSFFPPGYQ
In words: BLI. Put shortly:
(§2)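 Binding was measured by biolayer interferometry on an Octet Red96 System. Commercial human Fc receptor proteins were loaded at 20 μg/mL onto anti-penta-HIS biosensors, which were then dipped into an 8-point 1:3 dilution series of test IgG starting at 300 nM in PBS with 0.1% BSA and 0.02% Tween-20, at pH 7.2 for Fcγ receptors and pH 6 for FcRn. Kd, kon and koff were obtained by global fitting, with data fitted to a 1:1 binding model.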
A general note: BLI is a label-free optical method that tracks binding on a fibre tip over time.

Assay [3] has as its target T3, human FcRIIIB protein (MednaBio, E1037) (human, UniProt O75015 17-200).
T3 construct: Bought; also called FcγRIIIB; FcgRIIIB
In words: BLI. Put shortly:
as §2

Assay [4] has as its target T4, human FcRn protein (MednaBio, E1032) (human, UniProt P55899 24-297; P61769 21-119).
T4 construct: Bought; assays at pH 6
The experiment in a line: BLI. Put shortly:
as §2

Assay [5] deals with T5, human FcRIIA protein (MednaBio, E1033) (human, UniProt P12318 34-218, limits assumed).
T5 construct: Bought; also called FcγRIIA
T5 sequence (looked up): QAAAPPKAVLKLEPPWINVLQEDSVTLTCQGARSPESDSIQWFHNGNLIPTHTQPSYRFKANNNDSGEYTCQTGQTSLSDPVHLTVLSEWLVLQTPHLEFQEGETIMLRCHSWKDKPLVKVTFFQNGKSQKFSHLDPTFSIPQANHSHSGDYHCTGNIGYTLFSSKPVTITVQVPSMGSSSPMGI
The experiment in a line: BLI. The procedure, abridged:
as §2

The target in assay [6] is T6, human FcRIIB/C protein (MednaBio, E1034) (human, UniProt P31994 43-217, limits assumed).
T6 construct: Bought as FcRIIB/C; also called FcγRIIB; CD32B
T6 sequence (looked up): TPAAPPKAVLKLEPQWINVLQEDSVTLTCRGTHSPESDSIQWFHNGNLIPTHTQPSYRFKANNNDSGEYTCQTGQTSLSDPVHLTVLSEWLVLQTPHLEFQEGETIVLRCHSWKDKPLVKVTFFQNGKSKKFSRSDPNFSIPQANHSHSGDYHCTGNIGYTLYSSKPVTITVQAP
In words: BLI. The procedure, abridged: as §2

Assay [7] addresses T7, human FcRI protein (MednaBio, E1031) (human, UniProt P12314 16-288, limits assumed).
T7 construct: Bought; loaded on anti-penta-HIS biosensors; also called FcγRI
The experiment in a line: BLI. The procedure, abridged:
as §2

Assay [8] has as its target T8, human FcRIIIA-F158 protein (MednaBio, E1036) (human, UniProt P08637 17-208).
T8 construct: Bought; also called FcγRIIIA(F)
In words: BLI. Put shortly:
as §2

The target of assay [9] is T9, human FcγRIIA(H131) expressed on CHO cells (human, UniProt P12318 34-317).
T9 construct: whole, on cells
T9 sequence (looked up): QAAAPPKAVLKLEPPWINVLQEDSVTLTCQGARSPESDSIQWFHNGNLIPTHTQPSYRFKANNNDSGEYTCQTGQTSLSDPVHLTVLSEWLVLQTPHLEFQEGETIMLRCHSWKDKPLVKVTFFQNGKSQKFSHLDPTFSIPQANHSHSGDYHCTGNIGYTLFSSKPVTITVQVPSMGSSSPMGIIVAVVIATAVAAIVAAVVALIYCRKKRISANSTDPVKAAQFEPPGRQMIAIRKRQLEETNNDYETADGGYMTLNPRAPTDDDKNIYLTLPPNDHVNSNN
In words: FACS, CHO cells expressing FcγRIIA(H131). How it is done: (§3) FIGS. 1A-1W are charts showing binding activity of various IgG variants as indicated to different types of Fcγ receptors expressed on CHO-K1 cells at the various concentrations as indicated. The concentrations of each IgG variant, from left to right, are 0 μg/ml, 0.3 μg/ml, 1 μg/ml, 3 μg/ml, and 10 μg/ml in FIGS. 1A-1C, 1E-J, 1L-1M, 1P-1R, and 1T-1V. For FIGS. 1D, 1K, 10, 1S, and 1w the bars, from left to right, correspond to the following concentrations of IgG variant: 0.3 μg/ml, 1 μg/ml, 3 μg/ml, and 10 μg/ml.
as §1

The target of assay [10] is T10, human FcγRIIA(R131) expressed on CHO cells (human, UniProt P12318 34-317).
T10 construct: whole, on cells
T10 sequence (looked up): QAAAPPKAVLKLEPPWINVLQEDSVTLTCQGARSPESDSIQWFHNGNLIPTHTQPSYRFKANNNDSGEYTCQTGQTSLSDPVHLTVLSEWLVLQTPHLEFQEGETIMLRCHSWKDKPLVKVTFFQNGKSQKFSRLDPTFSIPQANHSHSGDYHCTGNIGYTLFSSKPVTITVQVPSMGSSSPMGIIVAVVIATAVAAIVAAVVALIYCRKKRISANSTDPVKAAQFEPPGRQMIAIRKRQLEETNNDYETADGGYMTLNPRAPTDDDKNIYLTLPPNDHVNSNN
In words: FACS, CHO cells expressing FcγRIIA(R131).

The target of assay [11] is T10, human FcγRIIA(R131) expressed on CHO …. In words: FACS, CHO cells expressing FcγRIIA(R131). How it is done: as §3, §1
This is another data set of the same source.

Assay [12] has as its target T2, human FcRIIIA-V158 protein (MednaBio, …). The experiment in a line: BLI. The procedure, abridged:
as §2
This is another data set of the same source.

Assay [13] addresses T3, human FcRIIIB protein (MednaBio, E1037). The experiment in a line: BLI. The procedure, abridged:
as §2
This is another data set of the same source.

Assay [14] deals with T4, human FcRn protein (MednaBio, E1032). The experiment in a line: BLI. The procedure, abridged:
as §2
This is another data set of the same source.

Assay [15] concerns the target T5, human FcRIIA protein (MednaBio, E1033). The experiment in a line: BLI. The procedure, abridged: as §2
The source holds these as a separate data set.

The target of assay [16] is T6, human FcRIIB/C protein (MednaBio, E1034). The experiment in a line: BLI. Put shortly: as §2
The source holds these as a separate data set.

Assay [17] deals with T7, human FcRI protein (MednaBio, E1031). The experiment in a line: BLI. Put shortly: as §2
This is another data set of the same source.

In assay [18] the target is T8, human FcRIIIA-F158 protein (MednaBio, …). In words: BLI. The procedure, abridged: as §2
The source holds these as a separate data set.

One may read the Kd as a measure of binding affinity in units of concentration. High values mean lower affinity, low ones higher affinity. A word on the koff: it is a measure of how fast the partners let go of each other. Higher therefore signals fast dissociation. As a reminder, the kon is a measure of how fast the partners come together. Low readings indicate slow association, high ones fast association.

Like-named read-outs stand apart in the source and are kept apart here.

T3 sequence (O75015 17-200 limits assumed): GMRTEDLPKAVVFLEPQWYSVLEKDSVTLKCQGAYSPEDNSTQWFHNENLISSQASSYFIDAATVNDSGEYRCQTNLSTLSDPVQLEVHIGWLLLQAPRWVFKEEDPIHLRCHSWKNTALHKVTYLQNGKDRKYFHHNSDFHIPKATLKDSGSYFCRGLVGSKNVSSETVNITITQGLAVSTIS
T8 sequence (P08637 17-208 limits assumed): as the sequence (P08637 17-208 F176V) above, with V160F counted along it
T4 sequence (P55899 24-297 limits assumed, form in doubt, chain 1 of 2): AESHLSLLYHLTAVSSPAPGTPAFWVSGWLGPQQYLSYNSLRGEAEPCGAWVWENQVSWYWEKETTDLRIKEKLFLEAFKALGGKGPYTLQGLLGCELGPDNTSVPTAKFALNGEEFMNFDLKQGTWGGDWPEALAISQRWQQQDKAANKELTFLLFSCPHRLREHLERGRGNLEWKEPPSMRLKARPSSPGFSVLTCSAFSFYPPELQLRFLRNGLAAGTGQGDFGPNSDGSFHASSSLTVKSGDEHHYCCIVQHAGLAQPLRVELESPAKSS
T4 sequence (P61769 21-119 limits assumed, form in doubt, chain 2 of 2): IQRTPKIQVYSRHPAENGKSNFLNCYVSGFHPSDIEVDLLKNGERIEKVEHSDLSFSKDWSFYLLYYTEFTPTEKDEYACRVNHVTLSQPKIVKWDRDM
T7 sequence (P12314 16-288 limits assumed): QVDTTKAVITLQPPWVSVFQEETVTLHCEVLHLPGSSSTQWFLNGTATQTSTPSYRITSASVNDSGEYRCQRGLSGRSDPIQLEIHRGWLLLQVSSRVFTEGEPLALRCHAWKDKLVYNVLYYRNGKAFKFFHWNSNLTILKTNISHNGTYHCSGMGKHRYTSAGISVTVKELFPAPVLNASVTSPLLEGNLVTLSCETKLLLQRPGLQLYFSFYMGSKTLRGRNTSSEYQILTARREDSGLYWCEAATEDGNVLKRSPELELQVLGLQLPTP

B1: anti-CD137 IgG1 with Fc variant G1m25 (antibody)
heavy: EVQLVQSGAEVKKPGESLRISCKGSGYSFSTYWISWVRQMPGKGLEWMGKIYPGDSYTNYSPSFQGQVTISADKSISTAYLQWSSLKASDTAMYYCARGYGIFDYWGQGTLVTVSSASTKGPSVFPLAPSSKSTSGGTAALGCLVKDYFPEPVTVSWNSGALTSGVHTFPAVLQSSGLYSLSSVVTVPSSSLGTQTYICNVNHKPSNTKVDKKVEPKSCDKTHTCPPCPAPELLGPSVFLFPPKPKDTLMISRTPEVTCVVVDVSHEDPEEKFNWYVDGVEVHNAKTKPREEQYNSTYRVVSVLTVLHQDWLNGKEYKCKVSNKALPAPIEKTISKAKGQPREPQVYTLPPSREEMTKNQVSLTCLVKGFYPSDIAVEWESNGQPENNYKTTPPVLDSDGSFFLYSKLTVDKSRWQQGNVFSCSVMHEALHNHYTQKSLSLSPGK
light: SYELTQPPSVSVSPGQTASITCSGDNIGDQYAHWYQQKPGQSPVLVIYQDKNRPSGIPERFSGSNSGNTATLTISGTQAMDEADYYCATYTGFGSLAVFGGGTKLTVLGQPKAAPSVTLFPPSSEELQANKATLVCLISDFYPGAVTVAWKADSSPVKAGVETTTPSKQSNNKYAASSYLSLTPEQWKSHRSYSCQVTHEGSTVEKTVAPTECS
notes: copies: 2 + 2
Consider B1, for which the binding result in [1] is on record as “no binding (tested: 10 ug/ml)”; in assay [2], “no binding (tested: 300 nM)”; in assay [3], “no binding (tested: 300 nM)”; in [5], “no binding (tested: 300 nM)”; in [6], “no binding (tested: 300 nM)”; in assay [7], “no binding (tested: 300 nM)”. Further, the values for the binding result in [8], in [9] and in assay [10] were “no binding (tested: 300 nM)”, “no binding (tested: 10 ug/ml)” and “no binding (tested: 10 ug/ml)”, respectively. The Kd in [4] was determined as 15 nM. In assay [4], this molecule showed a koff of 0.0093 s⁻¹. The same molecule had a kon in assay [4] of 620000 M⁻¹ s⁻¹.

B2: anti-CD137 IgG4 with Fc variant G4m30 (antibody)
heavy: EVQLVQSGAEVKKPGESLRISCKGSGYSFSTYWISWVRQMPGKGLEWMGKIYPGDSYTNYSPSFQGQVTISADKSISTAYLQWSSLKASDTAMYYCARGYGIFDYWGQGTLVTVSSASTKGPSVFPLAPCSRSTSESTAALGCLVKDYFPEPVTVSWNSGALTSGVHTFPAVLQSSGLYSLSSVVTVPSSSLGTKTYTCNVDHKPSNTKVDKRVESKYGPPCPPCPAPEFLPSVFLFPPKPKDTLMISRTPEVTCVVVDVSQEDPEVQFNWYVDGVEVHNAKTKPREEQFNSTYRVVSVLTVLHQDWLNGKEYKCKVSNKGLPSSIEKTISKAKGQPREPQVYTLPPSQEEMTKNQVSLTCLVKGFYPSDIAVEWESNGQPENNYKTTPPVLDSDGSFFLYSRLTVDKSRWQEGNVFSCSVMHEALHNHYTQKSLSLSLGK
light: SYELTQPPSVSVSPGQTASITCSGDNIGDQYAHWYQQKPGQSPVLVIYQDKNRPSGIPERFSGSNSGNTATLTISGTQAMDEADYYCATYTGFGSLAVFGGGTKLTVLGQPKAAPSVTLFPPSSEELQANKATLVCLISDFYPGAVTVAWKADSSPVKAGVETTTPSKQSNNKYAASSYLSLTPEQWKSHRSYSCQVTHEGSTVEKTVAPTECS
notes: also called G430; copies: 2 + 2
Turning to B2, the binding result in [11] is given as “no binding (tested: 10 ug/ml)”. Moreover, the equilibrium dissociation constant (Kd) in [12] amounted to 217 nM; in assay [13] it was 216 nM; in assay [14], 7.61 nM; in [15], 977 nM; in assay [16], 2220 nM; in assay [17], 528 nM. The molecule further registered a Kd in [18] of 284 nM. Further, the off-rate (koff) was determined as 0.309 s⁻¹ in [12]; 0.297 s⁻¹ in [13]; 0.0133 s⁻¹ in assay [14]; 0.234 s⁻¹ in [15]; 0.118 s⁻¹ in [16]; 0.193 s⁻¹ in [17]. This molecule showed a koff in assay [18] of 0.303 s⁻¹. Also, the association rate constant (kon) in [12] worked out at 1.42e+06 M⁻¹ s⁻¹; in assay [13], 1.37e+06 M⁻¹ s⁻¹; in assay [14], 1.75e+06 M⁻¹ s⁻¹; in assay [15] it was 240000 M⁻¹ s⁻¹; in assay [16], 53600 M⁻¹ s⁻¹; in [17] it was 365000 M⁻¹ s⁻¹. The same molecule displayed an on-rate constant (kon) in assay [18] of 1.06e+06 M⁻¹ s⁻¹.

For the origin of these results see patent US20200392227A1 (LYVGEN BIOPHARMA, published 2020).
